Source: article PMC2606670

Legend:
[1] = molecular target: GST-ctβ382-401 Y390F (mouse | not stated) (UniProt P09690); test: far-Western, overlay or dot blot
[2] = molecular target: acetylcholine receptor containing beta subunit phosphorylated at Y390 (mouse (endogenous in myotubes)) (UniProt P04756); test: co-IP
UniProt P04756, sequence (P04756 21-457, chain 1 of 4): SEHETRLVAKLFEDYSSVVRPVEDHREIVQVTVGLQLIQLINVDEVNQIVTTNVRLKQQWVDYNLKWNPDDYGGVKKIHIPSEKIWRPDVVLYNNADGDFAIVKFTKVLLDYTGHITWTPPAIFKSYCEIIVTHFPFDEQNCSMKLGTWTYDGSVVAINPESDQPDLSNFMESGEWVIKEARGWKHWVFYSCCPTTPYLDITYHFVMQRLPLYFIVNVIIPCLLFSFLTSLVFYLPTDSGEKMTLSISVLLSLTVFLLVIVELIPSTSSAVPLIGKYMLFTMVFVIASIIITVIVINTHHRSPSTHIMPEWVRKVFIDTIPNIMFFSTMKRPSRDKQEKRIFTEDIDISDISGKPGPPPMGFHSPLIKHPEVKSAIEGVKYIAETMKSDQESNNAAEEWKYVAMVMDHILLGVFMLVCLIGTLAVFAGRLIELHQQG
UniProt P04756, sequence (P09690 24-501, chain 2 of 4, further chain): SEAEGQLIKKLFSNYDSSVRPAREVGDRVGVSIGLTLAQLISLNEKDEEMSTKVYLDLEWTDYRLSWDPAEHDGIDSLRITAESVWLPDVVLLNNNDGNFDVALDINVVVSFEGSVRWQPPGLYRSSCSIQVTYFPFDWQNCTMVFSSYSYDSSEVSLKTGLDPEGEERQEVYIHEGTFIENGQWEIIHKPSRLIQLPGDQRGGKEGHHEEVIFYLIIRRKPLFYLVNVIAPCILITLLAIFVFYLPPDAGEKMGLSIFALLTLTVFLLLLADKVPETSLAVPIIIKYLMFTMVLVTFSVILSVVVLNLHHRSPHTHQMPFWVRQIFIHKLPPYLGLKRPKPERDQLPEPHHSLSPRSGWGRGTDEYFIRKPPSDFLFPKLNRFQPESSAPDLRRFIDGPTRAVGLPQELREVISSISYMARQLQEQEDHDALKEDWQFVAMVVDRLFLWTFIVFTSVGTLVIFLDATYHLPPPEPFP
UniProt P04756, sequence (P02716 25-520, chain 3 of 4, further chain): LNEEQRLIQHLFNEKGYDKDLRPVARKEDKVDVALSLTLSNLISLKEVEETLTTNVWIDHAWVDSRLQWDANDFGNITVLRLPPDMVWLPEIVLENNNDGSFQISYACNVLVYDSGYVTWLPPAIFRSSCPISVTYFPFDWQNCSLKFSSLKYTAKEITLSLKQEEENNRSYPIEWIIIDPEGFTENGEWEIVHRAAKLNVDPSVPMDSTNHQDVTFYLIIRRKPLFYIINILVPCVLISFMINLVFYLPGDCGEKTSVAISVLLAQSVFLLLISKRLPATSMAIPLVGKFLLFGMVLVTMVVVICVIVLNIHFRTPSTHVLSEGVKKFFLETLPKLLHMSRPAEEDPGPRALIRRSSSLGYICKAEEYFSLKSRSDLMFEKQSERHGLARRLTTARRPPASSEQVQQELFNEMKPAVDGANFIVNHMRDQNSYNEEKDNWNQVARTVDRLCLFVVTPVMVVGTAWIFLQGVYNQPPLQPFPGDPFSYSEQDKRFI
UniProt P04756, sequence (P04760 23-519, chain 4 of 4, further chain): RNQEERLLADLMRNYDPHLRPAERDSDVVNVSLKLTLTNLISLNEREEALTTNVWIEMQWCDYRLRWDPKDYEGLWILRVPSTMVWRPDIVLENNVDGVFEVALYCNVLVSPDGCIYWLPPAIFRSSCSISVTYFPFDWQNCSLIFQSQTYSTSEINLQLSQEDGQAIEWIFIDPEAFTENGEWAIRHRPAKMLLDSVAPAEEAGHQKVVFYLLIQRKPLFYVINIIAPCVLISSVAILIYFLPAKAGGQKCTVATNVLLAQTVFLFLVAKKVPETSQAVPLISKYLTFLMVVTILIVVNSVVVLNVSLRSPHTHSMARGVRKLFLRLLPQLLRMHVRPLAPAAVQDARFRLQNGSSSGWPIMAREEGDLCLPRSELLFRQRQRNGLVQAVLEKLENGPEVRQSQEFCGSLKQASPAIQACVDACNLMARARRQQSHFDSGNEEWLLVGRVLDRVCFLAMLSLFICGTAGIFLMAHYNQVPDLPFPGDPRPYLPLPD

B1: GST-rapsyn (natural protein)
chain: MGQDQTKQQIEKGLQLYQSNQTEKALQVWMKVLEKGSDLVGRFRVLGCLVTAHSEMGRYKEMLKFAVVQIDTARGLEDADFLLESYLNLARSNEKLCEFHKTISYCKTCLGLPGTRAGAQLGGQVSLSMGNAFLGLSLFQKALESFEKALRYAHNNDDTMLECRVCCSLGSFYAQVKDYEKALFFPCKAAELVNDYGKGWSLKYRAMSQYHMAVAYRLLGHLGSAMECCEESMKIALQHGDRPLQALCLLCFADIHRSRGDLETAFPRYDSAMSIMTEIGNRLGQVHVLLGVAKCWMARKVQDKALDAIEKAQDLAEEVGNKLSQLKLHCLSESIYRSKGLQRELRTHVVRFHECVEETELYCGLCGESIGERNSRLQALPCSHIFHLRCLQNNGTRSCPNCRRSSMKPGFV
- % of binding to β382-401 WT (% of binding to β382-401 WT) [1]: 92

B2: rapsyn, endogenous in mouse myotubes (natural protein)
chain: MGQDQTKQQIEKGLQLYQSNQTEKALQVWMKVLEKGSDLVGRFRVLGCLVTAHSEMGRYKEMLKFAVVQIDTARGLEDADFLLESYLNLARSNEKLCEFHKTISYCKTCLGLPGTRAGAQLGGQVSLSMGNAFLGLSLFQKALESFEKALRYAHNNDDTMLECRVCCSLGSFYAQVKDYEKALFFPCKAAELVNDYGKGWSLKYRAMSQYHMAVAYRLLGHLGSAMECCEESMKIALQHGDRPLQALCLLCFADIHRSRGDLETAFPRYDSAMSIMTEIGNRLGQVHVLLGVAKCWMARKVQDKALDAIEKAQDLAEEVGNKLSQLKLHCLSESIYRSKGLQRELRTHVVRFHECVEETELYCGLCGESIGERNSRLQALPCSHIFHLRCLQNNGTRSCPNCRRSSMKPGFV
- fold rapsyn associated, against AChR with non-phosphorylated β subunit [2]: 2.3 fold
